Reference: article PMC3578099 (Journal of structural biology, 2013)
Read-outs that look alike come from different tables or passages of the source. Square brackets hold non-standard residues; d marks the D form. Ends that are not written are not given here. pY = N[C@@H](Cc1ccc(OP(=O)(O)O)cc1)C(=O)O

Assays:
[1] = target: T1, SHP-1 C453S catalytic domain (residues 243–530) (human, UniProt P29350 243-530, C453S); assay: ITC
[2] = target: T1, SHP-1 C453S catalytic domain (residues …); assay: ITC; remark: listed apart in the source

T1 sequence (P29350 243-530 C453S): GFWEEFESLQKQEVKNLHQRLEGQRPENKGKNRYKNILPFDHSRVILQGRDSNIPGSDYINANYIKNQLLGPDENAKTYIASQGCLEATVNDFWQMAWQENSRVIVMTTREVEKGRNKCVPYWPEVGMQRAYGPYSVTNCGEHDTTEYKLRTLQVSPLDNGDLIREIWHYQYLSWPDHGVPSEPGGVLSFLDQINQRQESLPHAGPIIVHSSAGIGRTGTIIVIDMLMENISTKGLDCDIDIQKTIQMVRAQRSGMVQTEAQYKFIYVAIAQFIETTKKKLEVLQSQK

Row | Binder | Kd [1] [µM] | dH [1] [kcal/mol] | stoichiometry N [1] | Kd [2] [µM]
1 | ETDKE[pY]YTVKD [JAK1 activation loop phosphopeptide E1029TDKEpYYTVKD] | 13.7 ± 1.4 | -28.7 ± 7.3 | 0.7 | 13.4
2 | ETDKEY[pY]TVKD [JAK1 activation loop phosphopeptide E1029TDKEYpYTVKD] | 5.6 ± 1.1 | -21.5 ± 3.5 | 0.9 | 
